Reference: PMC4382515

Substrate: N[C@@H](CCC(=O)O)C(=O)O
Assay: purified protein
Details: pH 4.6; 25.0 °C

B1: EcGadB (Escherichia coli K-12) (protein)
chain: MDKKQVTDLRSELLDSRFGAKSISTIAESKRFPLHEMRDDVAFQIINDELYLDGNARQNLATFCQTWDDENVHKLMDLSINKNWIDKEEYPQSAAIDLRCVNMVADLWHAPAPKNGQAVGTNTIGSSEACMLGGMAMKWRWRKRMEAAGKPTDKPNLVCGPVQICWHKFARYWDVELREIPMRPGQLFMDPKRMIEACDENTIGVVPTFGVTYTGNYEFPQPLHDALDKFQADTGIDIDMHIDAASGGFLAPFVAPDIVWDFRLPRVKSISASGHKFGLAPLGCGWVIWRDEEALPQELVFNVDYLGGQIGTFAINFSRPAGQVIAQYYEFLRLGREGYTKVQNASYQVAAYLADEIAKLGPYEFICTGRPDEGIPAVCFKLKDGEDPGYTLYDLSERLRLRGWQVPAFTLGGEATDIVVMRIMCRRGFEMDFAELLLEDYKASLKYLSDHPKLQGIAQQNSFKHT
  Km: 1100 ± 180 µM
  kcat/Km: 13900 ± 2830 M⁻¹ s⁻¹
